# In EP3919077A1:
# Target: human FcγRIIB (CD32B) on peripheral B cells (human) (UniProt P31994)
# Test: in vivo receptor occupancy on peripheral B cells of human subjects after infusion of 100 mg BI-1206 (preliminary clinical data)
# UniProt P31994, sequence (P31994 43-310): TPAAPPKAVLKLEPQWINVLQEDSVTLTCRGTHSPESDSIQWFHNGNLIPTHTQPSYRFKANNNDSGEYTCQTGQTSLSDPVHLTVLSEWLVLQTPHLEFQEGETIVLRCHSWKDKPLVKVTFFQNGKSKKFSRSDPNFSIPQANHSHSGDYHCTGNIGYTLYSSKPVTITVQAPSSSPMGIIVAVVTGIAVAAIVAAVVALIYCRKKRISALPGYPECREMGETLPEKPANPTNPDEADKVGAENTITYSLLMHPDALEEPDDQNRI
substance,measurement,value
BI-1206 (antibody),receptor occupancy,100%
